# Results taken from publication PMC2173703 (The Journal of Cell Biology, 2003).
# Where two headings read alike, the source gives them in different places. Where no end group is shown, it is not given here. [ ]: non-standard residue; d: D form. pY = N[C@@H](Cc1ccc(OP(=O)(O)O)cc1)C(=O)O; pT = C[C@@H](OP(=O)(O)O)[C@H](N)C(=O)O
# B1: GST-talin head, wild type (human talin1 1–435) (domain or fragment)
# chain: MVALSLKISIGNVVKTMQFEPSTMVYDACRIIRERIPEAPAGPPSDFGLFLSDDDPKKGIWLEAGKALDYYMLRNGDTMEYRKKQRPLKIRMLDGTVKTIMVDDSKTVTDMLMTICARIGITNHDEYSLVRELMEEKKEEITGTLRKDKTLLRDEKKMEKLKQKLHTDDELNWLDHGRTLREQGVEEHETLLLRRKFFYSDQNVDSRDPVQLNLLYVQARDDILNGSHPVSFDKACEFAGFQCQIQFGPHNEQKHKAGFLDLKDFLPKEYVKQKGERKIFQAHKNCGQMSEIEAKVRYVKLARSLKTYGVSFFLVKEKMKGKNKLVPRLLGITKECVMRVDEKTKEVIQEWNLTNIKRWAASPKSFTLDFGDYQDGYYSVQTTEGEQIAQLIAGYIDIILKKKKSKDHFGLEGDEESTMLEDSVSPKKSTVLQQQ
# What was measured:
# [1] = test system: tyrosine phosphorylation of PIPKIγ661 (Src family kinases); format: cell-based; details: HEK293T cells, 1 μM for 30 min at 37°C; Fig. 2 A
# [2] = test system: integrin–talin interaction; details: ref Martel et al., 2001; cited from earlier work
# [3] = target: B1; assay: pull-down
# [4] = target: B1; assay: pull-down; remark: listed apart in the source
# [5] = target: T1, fluorescein-labeled Y649-phosphorylated PIPKIγ661 peptide; assay: fluorescence polarisation
# T1 peptide: fluorescein-CDERSWVYSPLH[pY]SAR
# [6] = target: T2, fluorescein-labeled Y644-phosphorylated PIPKIγ661 peptide; assay: fluorescence polarisation
# T2 peptide: fluorescein-CDERSWV[pY]SPLHYSAR
molecule,measurement,setting,value
CC(C)(C)n1nc(-c2ccc(Cl)cc2)c2c(N)ncnc21 [PP2],inhibition of basal and FAK-induced tyrosine phosphorylation of PIPKIγ661,[1],inhibited
"Phosphatidylinositol 4,5-bisphosphate [PI4,5P2]",increase of the integrin–talin binding affinity,[2],~10 fold
CDERSWVYSPLHYSAR [PIPKIγ661 peptide PN (nonphosphorylated)],binding result,[3],binds
CMNAKWD[pT]GENPIYKSA [β1-integrin peptide β1InpT],binding result,[4],binds
CMNAKWDTGENPIYKSA [β1-integrin peptide β1InPN (nonphosphorylated)],binding result,[4],binds
B1,fold increase in binding affinity against the nonphosphorylated peptide,[5],~15 fold
same,fold increase in binding affinity against the nonphosphorylated peptide,[6],~15 fold
